For this assay, the target named is human medin (human) (UniProt Q08431). Nature of the assay: thioflavin T aggregation kinetics.

With “human medin (from UniProt Q08431 268-317) (peptide)”, the critical concentration of aggregation turned out to be 14 nM, the critical monomer concentration for aggregation was in the range of 10 to 25 nM and the elongation rate constant k+ (monomer addition to fibril ends) came to 5e+07 M⁻¹ s⁻¹.

Source of the values: article PMC13237374.
